The values that follow come from US7906705B2.

Substrate in series [1]: O=P(O)(O)O[C@H]1O[C@H](CO)[C@H](O)[C@H](O)[C@H]1O
Description: purified protein, by the assay type. The conditions noted are these: other: UDP sugar synthesis direction, 2.5 mM UTP, substrate 0 to 5 mM, pH 7.5, 30° C., E. coli expressed, partially purified.

Substrate in series [2]: O=P(O)(O)O[C@H]1O[C@H](CO)[C@@H](O)[C@H](O)[C@H]1O
The experiment in a line: purified protein, by the assay type. The conditions noted are these: other: UDP sugar synthesis direction, 2.5 mM UTP, substrate 0 to 5 mM, pH 7.5, 30° C.

[3] abbreviates: E. coli expressed, partially purified.

B1: melon UGGPase (UDP-Gal/Glc pyrophosphorylase), SEQ ID NO: 33 (Cucumis melo) (protein)
chain: MASSLDSAALTLSNLSINGDFASSLPNLQKNLHLLSPQQVELAKILLELGQSHLFEHWAEPGVDDNEKKAFFDQVARLNSSYPGGLASYIKTARGLLADSKEGKNPFDGFTPSVPTGEVLTFGDDSFVSFEDRGVREARKAAFVLVAGGLGERLGYNGIKVALPAETTTGTCFLQSYIEYVLALREASNRLAGESETEIPFVIMTSDDTHTRTVELLESNSYFGMKPSQVKLLKQEKVACLDDNEARLAVDPHNKYRIQTKPHGHGDVHALLYSSGLLKNWHNAGLRWVLFFQDTNGLLFKAIPASLGVSATREYHVNSLAVPRKAKEAIGGITRLTHTDGRSMVINVEYNQLDPLLRATGFPDGDVNNETGYSPFPGNINQLILELGSYIEELSKTQGAIKEFVNPKYKDATKTSFKSSTRLECMMQDYPKTLPPSARVGFTVMDTWVAYAPVKNNPEDAAKVPKGNPYHSATSGEMAIYRANSLVLRKAGVKVADPVEQVFNGQEVEVWPRITWKPKWGLTFSEIKSKINGNCSISPRSTLVIKGKNVYLKDLSLDGTLIVNADEDAEVKVEGSVHNKGWTLEPVDYKDTSVPEEIRIRGFRINKIEQEERN
B1: in series [1], the Km (commonly the concentration of substrate that gives half-maximal velocity) worked out at 430 µM and the Vmax amounted to 714 μmol mg protein^−1min^−1. Also, in series [2] (setting [3]), the Km was 270 µM and the Vmax came out at 222 μmol mg protein^−1min^−1.

B2: melon UGPase (UDP glucose pyrophosphorylase), SEQ ID NO: 35 (Cucumis melo) (protein)
chain: MASAATLSPADTEKLSKLKASVSGLTQISENEKSGFINLVSRYLSGEAQHVEWSKIQTPTDEVVVPYDSLAPVPNDPAETKKLLDKLVVLKLNGGLGTTMGCTGPKSVIEVRNGLTFLDLIVIQIENLNSKYGCNVPLLLMNSFNTHDDTQKIIEKYKGSNVDIHTFNQSQYPRLVAEDYLPLPSKGRTDKDGWYPPGHGDVFPSLKNSGKLDALIAQGKEYVFVANSDNLGAVVDLQILNHLIQNKNEYCMEVTPKTLADVKGGTLISYEGKVQLLEIAQVPDEHVNEFKSIQKFKIFNTNNLWVNLKAIKRLVEANALKMEIIPNPKEVDGIKVLQLETAAGAAIRFFDHAIGINVPRSRFLPVKATSDLLLVQSDLYTLVDGFVLRNKARKDPSNPSIELGPEFKKVGNFLSRFKSIPSIIELDSLKVVGDVSFGAGVVLKGKVTISAKPGTKLAVPDNAVIANKEINGPEDF
Consider B2, for which, in series [2] (ND = Not detected), the Km is 240 µM and the Vmax was 238 μmol mg protein^−1min^−1.
